This assay deals with T1, Strep lyspersin (subunit of recombinant BORCΔBLOC-1) (UniProt Q96GS4 1-357).
T1 sequence: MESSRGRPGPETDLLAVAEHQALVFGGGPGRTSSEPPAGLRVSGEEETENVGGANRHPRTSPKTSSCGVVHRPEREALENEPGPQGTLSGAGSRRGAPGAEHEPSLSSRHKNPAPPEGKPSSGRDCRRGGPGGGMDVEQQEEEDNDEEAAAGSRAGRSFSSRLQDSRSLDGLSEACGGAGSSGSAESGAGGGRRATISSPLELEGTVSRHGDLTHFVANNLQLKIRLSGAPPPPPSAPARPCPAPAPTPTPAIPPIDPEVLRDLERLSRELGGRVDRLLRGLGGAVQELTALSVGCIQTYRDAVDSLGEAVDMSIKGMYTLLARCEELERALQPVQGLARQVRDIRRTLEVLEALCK
Nature of the assay: cross-linking.

B1: KxDL1 (subunit of recombinant BORCΔBLOC-1) (natural protein)
chain: MDLPDSASRVFCGRILSMVNTDDVNAIILAQKNMLDRFEKTNEMLLNFNNLSSARLQQMSERFLHHTRTLVEMKRDLDSIFRRIRTLKGKLARQHPEAFSHIPEASFLEEEDEDPIPPSTTTTIATSEQSTGSCDTSPDTVSPSLSPGFEDLSHVQPGSPAINGRSQTDDEEMTGE
As to B1, the binding result is recorded as “binds”.

The values are drawn from paper PMC5716276 (The Journal of Cell Biology, 2017).
